Earlier results as cited in publication PMC12462375.

How the values were obtained:
CD47 (Homo sapiens) = CD47 (Homo sapiens) (UniProt Q08722)
basigin (Homo sapiens) = basigin (Homo sapiens) (UniProt P35613)
Chain of UniProt P35613 (P35613 22-325): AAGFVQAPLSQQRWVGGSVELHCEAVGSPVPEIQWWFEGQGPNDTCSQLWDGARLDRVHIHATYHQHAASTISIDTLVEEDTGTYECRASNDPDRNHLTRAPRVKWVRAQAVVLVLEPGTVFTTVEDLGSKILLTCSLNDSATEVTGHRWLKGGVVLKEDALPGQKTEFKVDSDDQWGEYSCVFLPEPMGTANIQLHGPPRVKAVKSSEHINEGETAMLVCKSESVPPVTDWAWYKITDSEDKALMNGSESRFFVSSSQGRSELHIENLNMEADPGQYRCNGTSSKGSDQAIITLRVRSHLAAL

Kd (CD47 (Homo sapiens)) | Substance | Kd (basigin (Homo sapiens))
0.74 µM | SIRPα (PDB 4CMM) (from UniProt P78324) | 
 | PfRH5 (from UniProt Q8IFM5) | 1.1 µM
